Data on one molecule can be found in US20130108636A1.

In the experiment the target is gp120s. The experiment in a line: binding assay, method not stated.

B1: m36d1 (VHH)
chain: QVQLVQSGGGLVQPGGSLRLSCAASAFDFSDYEMSWVRQAPGKGLEWIGEINDSGNTIYNPSLKSRVTISRDNSKNTLYLQMNTLRAEDTAIYYCAIYGGNSGGEYWGQGTLVTVSSGGGGSGGGGSGGGGSQVQLVQSGGGLVQPGGSLRLSCAASAFDFSDYEMSWVRQAPGKGLEWIGEINDSGNTIYNPSLKSRVTISRDNSKNTLYLQMNTLRAEDTAIYYCAIYGGNSGGEYWGQGTLVTVSS
In turn, B1 showed a fold decrease in binding compared to m36 of 16 fold.
